Data taken from patent US20240400708A1.
Positions count from the first letter of the chain named. In names and notes the source's numbering stands.

B1: feline IgG1a S254G (antibody, part only; not given: Variable domains, not shown: another chain or arm of the molecule)
constant: ASTTAPSVFPLAPSCGTTSGATVALACLVLGYFPEPVTVSWNSGALTSGVHTFPAVLQASGLYSLSSMVTVPSSRWLSDTFTCNVAHPPSNTKVDKTVRKTDHPPGPKPCDCPKCPPPEMLGGPSIFIFPPKPKDTLSIGRTPEVTCLVVDLGPDDSDVQITWFVDNTQVYTAKTSPREEQFNSTYRVVSVLPILHQDWLKGKEFKCKVNSKSLPSPIERTISKAKGQPHEPQVYVLPPAQEELSRNKVSVTCLIKSFHPPDIAVEWEITGQPEPENNYRTTPPQLDSDGTYFVYSKLSVDRSHWQRGNTYTCSVSHEALHSHHTQKSLTQSPGK
B2: feline IgG1a S254L (antibody, part only; not given: variable domains and light chain, not shown: another chain or arm of the molecule)
constant: B1 constant with G140L
B3: feline IgG1a S434K (antibody, part only; not given: variable domains and light chain, not shown: another chain or arm of the molecule)
constant: B1 constant with G140S, S322K
B4: feline IgG1a S428V (antibody, part only; not given: Variable domains, not shown: another chain or arm of the molecule; small tags and cut ends)
constant: B1 constant with G140S, S316V
B5: feline IgG1a S434V (antibody, part only; not given: Variable domains, not shown: another chain or arm of the molecule)
constant: B1 constant with G140S, S322V
B6: feline IgG1a S428Q (antibody, part only; not given: Variable domains, not shown: another chain or arm of the molecule; small tags and cut ends)
constant: B1 constant with G140S, S316Q
B7: feline IgG1a S434T (antibody, part only; not given: Variable domains, not shown: another chain or arm of the molecule)
constant: B1 constant with G140S, S322T
B8: feline IgG1a S252M (antibody, part only; not given: Variable domains, not shown: another chain or arm of the molecule)
constant: B1 constant with S138M, G140S
B9: feline IgG1a T256D (antibody, part only; not given: Variable domains, not shown: another chain or arm of the molecule)
constant: B1 constant with G140S, T142D
B10: feline IgG1a S254Q (antibody, part only; not given: Variable domains, not shown: another chain or arm of the molecule)
constant: B1 constant with G140Q
B11: feline IgG1a S252Y/Q311W/S434Y (antibody, part only; not given: Variable domains, not shown: another chain or arm of the molecule)
constant: B1 constant with S138Y, G140S, Q197W, S322Y
B12: feline IgG1a S252Y/S428Y/S434Y (antibody, part only; not given: variable domains and light chain, not shown: another chain or arm of the molecule)
constant: B1 constant with S138Y, G140S, S316Y, S322Y
B13: feline IgG1a S252Y/S428Y/Q311W (antibody, part only; not given: Variable domains, not shown: another chain or arm of the molecule)
constant: B1 constant with S138Y, G140S, Q197W, S316Y
B14: feline IgG1a T256I (antibody, part only; not given: Variable domains, not shown: another chain or arm of the molecule)
constant: B1 constant with G140S, T142I
B15: feline IgG1a S254T (antibody, part only; not given: Variable domains, not shown: another chain or arm of the molecule)
constant: B1 constant with G140T
B16: feline IgG1a S252Y/L314K (antibody, part only; not given: Variable domains, not shown: another chain or arm of the molecule)
constant: B1 constant with S138Y, G140S, L200K
B17: feline IgG1a S428P (antibody, part only; not given: Variable domains, not shown: another chain or arm of the molecule; small tags and cut ends)
constant: B1 constant with G140S, S316P
B18: feline IgG1a S428E (antibody, part only; not given: Variable domains, not shown: another chain or arm of the molecule)
constant: B1 constant with G140S, S316E
B19: feline IgG1a S254K (antibody, part only; not given: Variable domains, not shown: another chain or arm of the molecule)
constant: B1 constant with G140K
B20: feline IgG1a T256R (antibody, part only; not given: Variable domains, not shown: another chain or arm of the molecule)
constant: B1 constant with G140S, T142R
B21: feline IgG1a T256Y (antibody, part only; not given: Variable domains, not shown: another chain or arm of the molecule)
constant: B1 constant with G140S, T142Y
B22: feline IgG1a S254M (antibody, part only; not given: Variable domains, not shown: another chain or arm of the molecule)
constant: B1 constant with G140M
B23: feline IgG1a T256M (antibody, part only; not given: Variable domains, not shown: another chain or arm of the molecule)
constant: B1 constant with G140S, T142M
B24: feline IgG1a T256E (antibody, part only; not given: variable domains and light chain, not shown: another chain or arm of the molecule)
constant: B1 constant with G140S, T142E
B25: feline IgG1a S434P (antibody, part only; not given: Variable domains, not shown: another chain or arm of the molecule)
constant: B1 constant with G140S, S322P
B26: feline IgG1a S252Y/S428Y (antibody, part only; not given: Variable domains, not shown: another chain or arm of the molecule)
constant: B1 constant with S138Y, G140S, S316Y
B27: feline IgG1a S254W (antibody, part only; not given: Variable domains, not shown: another chain or arm of the molecule)
constant: B1 constant with G140W
B28: feline IgG1a S428N (antibody, part only; not given: Variable domains, not shown: another chain or arm of the molecule; small tags and cut ends)
constant: B1 constant with G140S, S316N
B29: feline IgG1a S428H (antibody, part only; not given: Variable domains, not shown: another chain or arm of the molecule)
constant: B1 constant with G140S, S316H
B30: feline IgG1a S254H (antibody, part only; not given: Variable domains, not shown: another chain or arm of the molecule)
constant: B1 constant with G140H
B31: feline IgG1a Q311W/D312P/L314K (antibody, part only; not given: Variable domains, not shown: another chain or arm of the molecule)
constant: B1 constant with G140S, Q197W, D198P, L200K
B32: feline IgG1a S252W (antibody, part only; not given: Variable domains, not shown: another chain or arm of the molecule)
constant: B1 constant with S138W, G140S
B33: feline IgG1a T256P (antibody, part only; not given: Variable domains, not shown: another chain or arm of the molecule)
constant: B1 constant with G140S, T142P
B34: feline IgG1a T256V (antibody, part only; not given: Variable domains, not shown: another chain or arm of the molecule)
constant: B1 constant with G140S, T142V
B35: feline IgG1a S428D (antibody, part only; not given: Variable domains, not shown: another chain or arm of the molecule)
constant: B1 constant with G140S, S316D
B36: feline IgG1a T256C (antibody, part only; not given: Variable domains, not shown: another chain or arm of the molecule)
constant: B1 constant with G140S, T142C
B37: feline IgG1a T256H (antibody, part only; not given: Variable domains, not shown: another chain or arm of the molecule)
constant: B1 constant with G140S, T142H
B38: feline IgG1a T256A (antibody, part only; not given: Variable domains, not shown: another chain or arm of the molecule)
constant: B1 constant with G140S, T142A
B39: feline IgG1a S428A (antibody, part only; not given: Variable domains, not shown: another chain or arm of the molecule)
constant: B1 constant with G140S, S316A
B40: feline IgG1a S428K (antibody, part only; not given: Variable domains, not shown: another chain or arm of the molecule)
constant: B1 constant with G140S, S316K
B41: feline IgG1a S428F (antibody, part only; not given: Variable domains, not shown: another chain or arm of the molecule)
constant: B1 constant with G140S, S316F
B42: feline IgG1a S434M (antibody, part only; not given: Variable domains, not shown: another chain or arm of the molecule)
constant: B1 constant with G140S, S322M
B43: feline IgG1a S428W (antibody, part only; not given: Variable domains, not shown: another chain or arm of the molecule; small tags and cut ends)
constant: B1 constant with G140S, S316W
B44: feline IgG1a S428T (antibody, part only; not given: Variable domains, not shown: another chain or arm of the molecule; small tags and cut ends)
constant: B1 constant with G140S, S316T
B45: feline IgG1a S428I (antibody, part only; not given: Variable domains, not shown: another chain or arm of the molecule)
constant: B1 constant with G140S, S316I
B46: feline IgG1a T256N (antibody, part only; not given: Variable domains, not shown: another chain or arm of the molecule)
constant: B1 constant with G140S, T142N
B47: feline IgG1a T256W (antibody, part only; not given: Variable domains, not shown: another chain or arm of the molecule)
constant: B1 constant with G140S, T142W
B48: feline IgG1a S428C (antibody, part only; not given: Variable domains, not shown: another chain or arm of the molecule)
constant: B1 constant with G140S, S316C
B49: feline IgG1a S254R (antibody, part only; not given: Variable domains, not shown: another chain or arm of the molecule)
constant: B1 constant with G140R
B50: feline IgG1a Q311W/S434Y (antibody, part only; not given: Variable domains, not shown: another chain or arm of the molecule)
constant: B1 constant with G140S, Q197W, S322Y
B51: feline IgG1a S434L (antibody, part only; not given: Variable domains, not shown: another chain or arm of the molecule)
constant: B1 constant with G140S, S322L
B52: feline IgG1a S254Y (antibody, part only; not given: Variable domains, not shown: another chain or arm of the molecule)
constant: B1 constant with G140Y
B53: feline IgG1a S428R (antibody, part only; not given: Variable domains, not shown: another chain or arm of the molecule; small tags and cut ends)
constant: B1 constant with G140S, S316R
B54: feline IgG1a T256G (antibody, part only; not given: variable domains and light chain, not shown: another chain or arm of the molecule)
constant: B1 constant with G140S, T142G
B55: feline IgG1a S428G (antibody, part only; not given: Variable domains, not shown: another chain or arm of the molecule)
constant: B1 constant with G140S, S316G
B56: feline IgG1a T256K (antibody, part only; not given: Variable domains, not shown: another chain or arm of the molecule)
constant: B1 constant with G140S, T142K
B57: feline IgG1a S434N (antibody, part only; not given: Variable domains, not shown: another chain or arm of the molecule)
constant: B1 constant with G140S, S322N
B58: feline IgG1a T256Q (antibody, part only; not given: Variable domains, not shown: another chain or arm of the molecule)
constant: B1 constant with G140S, T142Q
B59: feline IgG1a S428M (antibody, part only; not given: Variable domains, not shown: another chain or arm of the molecule)
constant: B1 constant with G140S, S316M
B60: feline IgG1a T256L (antibody, part only; not given: Variable domains, not shown: another chain or arm of the molecule)
constant: B1 constant with G140S, T142L
B61: feline IgG1a S254N (antibody, part only; not given: Variable domains, not shown: another chain or arm of the molecule)
constant: B1 constant with G140N
B62: feline IgG1a S428L (antibody, part only; not given: Variable domains, not shown: another chain or arm of the molecule)
constant: B1 constant with G140S, S316L

biological target: feline FcRn complex (FcRn-α subunit and β-microglobulin), biotin labeled (feline); experiment: SPR, pH 6

Row | Binder | Kd
1 | B1 | 64.2 nM
2 | B2 | 42.7 nM
3 | B3 | 6.76 nM
4 | B4 | 19.2 nM
5 | B5 | 3.71 nM
6 | B6 | 38.3 nM
7 | B7 | 10.6 nM
8 | B8 | 55 nM
9 | B9 | 244 nM
10 | B10 | 24.7 nM
11 | B11 | 97.2 nM
12 | B12 | 78.1 nM
13 | B13 | 67.7 nM
14 | B14 | 115 nM
15 | B15 | 16.1 nM
16 | B16 | 10.9 nM
17 | B17 | 18 nM
18 | B18 | 184 nM
19 | B19 | 46.5 nM
20 | B20 | 27.7 nM
21 | B21 | 22 nM

Row | Binder | Kd
22 | B22 | 101 nM
23 | B23 | 19.3 nM
24 | B24 | 50.9 nM
25 | B25 | 5.64 nM
26 | B26 | 17.2 nM
27 | B27 | 60.9 nM
28 | B28 | 42.9 nM
29 | B29 | 41.6 nM
30 | B30 | 1850 nM
31 | B31 | 1230 nM
32 | B32 | 80.3 nM
33 | B33 | 57.6 nM
34 | B34 | 19.5 nM
35 | B35 | 362 nM
36 | B36 | 154 nM
37 | B37 | 87.4 nM
38 | B38 | 40.6 nM
39 | B39 | 119 nM
40 | B40 | 70.2 nM
41 | B41 | 83.9 nM
42 | B42 | 2.8 nM

Row | Binder | Kd
43 | B43 | 36.4 nM
44 | B44 | 27.3 nM
45 | B45 | 40.8 nM
46 | B46 | 77.4 nM
47 | B47 | 25.2 nM
48 | B48 | 61.4 nM
49 | B49 | 21.5 nM
50 | B50 | 27 nM
51 | B51 | 8.67 nM
52 | B52 | 78.5 nM
53 | B53 | 68.6 nM
54 | B54 | 76.9 nM
55 | B55 | 46.3 nM
56 | B56 | 107 nM
57 | B57 | 6.94 nM
58 | B58 | 58.6 nM
59 | B59 | 21.8 nM
60 | B60 | 86.5 nM
61 | B61 | 25.7 nM
62 | B62 | 81.5 nM
